Assay results: the supplement of paper PMC10065799, “High-throughput profiling of sequence recognition by tyrosine kinases and SH2 domains using bacterial peptide display” (eLife, 2023)

How the values were obtained:
Fes = Fes (UniProt P07332); experiment: phosphorylation enrichment, bacterial display (enrichment ratio); higher = better substrate or ligand; peptides without Tyr show the background
MERTK = MERTK (UniProt Q12866); experiment: as above
AncSZ = experiment: as above
Fyn = Fyn (UniProt P06241); experiment: as above
EPHB1 = EPHB1 (UniProt P54762); experiment: as above
EPHB2 = EPHB2 (UniProt P29323); experiment: as above
c-Src = experiment: as above
Hck = Hck (UniProt P08631); experiment: as above
FGFR3 = FGFR3 (UniProt P22607); experiment: as above
FGFR1 = FGFR1 (UniProt P11362); experiment: as above
Fer (mouse) = experiment: as above
c-Abl (mouse) = experiment: as above
Jak2 = Jak2 (UniProt O60674); experiment: as above
c-Src SH2 = experiment: SH2 binding enrichment of the phosphorylated peptide, bacterial display (enrichment ratio); higher = better substrate or ligand; peptides without Tyr show the background
Grb2 SH2 = Grb2 SH2 (UniProt P62993); experiment: as above
SHP2-C SH2 = experiment: as above
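Wherever SH2 binding enrichment of the phosphorylated peptide, bacterial display is given: peptide library displayed on the E. coli surface as eCPX fusions, selected cells deep-sequenced, score is each peptide's frequency after selection divided by its frequency in the input.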
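Wherever phosphorylation enrichment, bacterial display is given: 11-residue human phosphosite peptides and single-mutation variants displayed on the E. coli surface, counted by deep sequencing, each peptide's frequency after selection divided by its frequency in the unselected input library; frequency after pTyr selection over input frequency; kinase dosed for 20-30% of maximal phosphorylation in three min.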

Fyn, sequence (P06241 whole entry, looked up): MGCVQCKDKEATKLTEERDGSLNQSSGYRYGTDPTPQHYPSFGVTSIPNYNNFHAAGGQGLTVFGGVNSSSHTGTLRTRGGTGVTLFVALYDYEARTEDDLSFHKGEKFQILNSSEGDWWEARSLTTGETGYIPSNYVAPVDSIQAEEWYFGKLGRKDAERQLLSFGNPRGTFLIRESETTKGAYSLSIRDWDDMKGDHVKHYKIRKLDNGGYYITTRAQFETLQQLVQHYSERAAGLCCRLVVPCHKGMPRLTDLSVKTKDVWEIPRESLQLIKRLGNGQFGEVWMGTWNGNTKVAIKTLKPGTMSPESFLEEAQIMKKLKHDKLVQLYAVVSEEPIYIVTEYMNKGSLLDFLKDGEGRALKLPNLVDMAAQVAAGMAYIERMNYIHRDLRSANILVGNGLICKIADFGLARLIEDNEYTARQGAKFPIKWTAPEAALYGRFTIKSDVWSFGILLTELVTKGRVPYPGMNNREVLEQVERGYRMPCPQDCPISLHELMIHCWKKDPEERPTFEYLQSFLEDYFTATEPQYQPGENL
FGFR3, sequence (P22607 whole entry, looked up): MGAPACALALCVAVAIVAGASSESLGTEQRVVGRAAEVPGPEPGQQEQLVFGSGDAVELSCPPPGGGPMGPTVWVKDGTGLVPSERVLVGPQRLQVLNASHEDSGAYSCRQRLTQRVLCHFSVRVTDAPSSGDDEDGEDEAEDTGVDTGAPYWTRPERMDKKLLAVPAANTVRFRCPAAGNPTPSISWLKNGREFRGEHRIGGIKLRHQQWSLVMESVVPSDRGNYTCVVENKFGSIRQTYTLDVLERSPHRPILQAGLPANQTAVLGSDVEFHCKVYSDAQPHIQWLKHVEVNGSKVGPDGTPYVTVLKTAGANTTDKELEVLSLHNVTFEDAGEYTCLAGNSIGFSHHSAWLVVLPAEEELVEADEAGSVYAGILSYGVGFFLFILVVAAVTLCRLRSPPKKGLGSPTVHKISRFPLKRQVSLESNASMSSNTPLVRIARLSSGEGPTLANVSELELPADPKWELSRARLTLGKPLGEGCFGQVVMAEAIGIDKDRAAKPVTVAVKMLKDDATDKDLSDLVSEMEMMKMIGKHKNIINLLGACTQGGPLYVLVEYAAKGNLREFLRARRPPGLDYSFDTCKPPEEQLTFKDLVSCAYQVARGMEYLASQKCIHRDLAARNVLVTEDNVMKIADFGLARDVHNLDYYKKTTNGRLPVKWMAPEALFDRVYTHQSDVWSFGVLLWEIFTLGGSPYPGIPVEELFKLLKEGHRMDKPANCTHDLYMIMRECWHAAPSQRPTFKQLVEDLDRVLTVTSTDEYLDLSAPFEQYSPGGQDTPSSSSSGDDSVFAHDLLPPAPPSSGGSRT
EPHB2, sequence (P29323 whole entry, looked up): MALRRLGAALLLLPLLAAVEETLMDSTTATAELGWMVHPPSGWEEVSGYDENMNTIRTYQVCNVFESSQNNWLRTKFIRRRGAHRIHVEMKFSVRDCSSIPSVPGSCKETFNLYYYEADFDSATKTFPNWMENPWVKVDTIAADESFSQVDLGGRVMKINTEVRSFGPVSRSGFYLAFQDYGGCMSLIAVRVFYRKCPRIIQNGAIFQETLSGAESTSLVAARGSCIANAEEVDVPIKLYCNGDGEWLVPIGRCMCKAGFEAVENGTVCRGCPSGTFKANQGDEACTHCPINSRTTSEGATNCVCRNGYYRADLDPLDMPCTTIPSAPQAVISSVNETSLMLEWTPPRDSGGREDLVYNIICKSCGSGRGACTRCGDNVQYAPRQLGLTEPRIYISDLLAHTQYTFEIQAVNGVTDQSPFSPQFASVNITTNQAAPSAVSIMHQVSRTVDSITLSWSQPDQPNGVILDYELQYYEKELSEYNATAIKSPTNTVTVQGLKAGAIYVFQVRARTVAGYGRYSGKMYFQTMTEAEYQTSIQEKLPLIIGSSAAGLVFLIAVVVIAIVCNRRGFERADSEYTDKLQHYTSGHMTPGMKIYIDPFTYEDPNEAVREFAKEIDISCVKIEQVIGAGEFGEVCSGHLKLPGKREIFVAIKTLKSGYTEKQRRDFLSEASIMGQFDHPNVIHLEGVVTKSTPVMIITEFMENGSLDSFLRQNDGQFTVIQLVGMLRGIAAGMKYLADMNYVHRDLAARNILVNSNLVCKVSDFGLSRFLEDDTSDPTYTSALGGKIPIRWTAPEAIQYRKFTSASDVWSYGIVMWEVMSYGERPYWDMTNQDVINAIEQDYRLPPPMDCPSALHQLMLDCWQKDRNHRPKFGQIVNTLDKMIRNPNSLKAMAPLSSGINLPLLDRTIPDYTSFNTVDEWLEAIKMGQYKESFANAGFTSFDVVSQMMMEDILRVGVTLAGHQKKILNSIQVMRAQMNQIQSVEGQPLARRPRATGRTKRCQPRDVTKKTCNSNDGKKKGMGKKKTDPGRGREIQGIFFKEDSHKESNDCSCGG
MERTK, sequence (Q12866 whole entry, looked up): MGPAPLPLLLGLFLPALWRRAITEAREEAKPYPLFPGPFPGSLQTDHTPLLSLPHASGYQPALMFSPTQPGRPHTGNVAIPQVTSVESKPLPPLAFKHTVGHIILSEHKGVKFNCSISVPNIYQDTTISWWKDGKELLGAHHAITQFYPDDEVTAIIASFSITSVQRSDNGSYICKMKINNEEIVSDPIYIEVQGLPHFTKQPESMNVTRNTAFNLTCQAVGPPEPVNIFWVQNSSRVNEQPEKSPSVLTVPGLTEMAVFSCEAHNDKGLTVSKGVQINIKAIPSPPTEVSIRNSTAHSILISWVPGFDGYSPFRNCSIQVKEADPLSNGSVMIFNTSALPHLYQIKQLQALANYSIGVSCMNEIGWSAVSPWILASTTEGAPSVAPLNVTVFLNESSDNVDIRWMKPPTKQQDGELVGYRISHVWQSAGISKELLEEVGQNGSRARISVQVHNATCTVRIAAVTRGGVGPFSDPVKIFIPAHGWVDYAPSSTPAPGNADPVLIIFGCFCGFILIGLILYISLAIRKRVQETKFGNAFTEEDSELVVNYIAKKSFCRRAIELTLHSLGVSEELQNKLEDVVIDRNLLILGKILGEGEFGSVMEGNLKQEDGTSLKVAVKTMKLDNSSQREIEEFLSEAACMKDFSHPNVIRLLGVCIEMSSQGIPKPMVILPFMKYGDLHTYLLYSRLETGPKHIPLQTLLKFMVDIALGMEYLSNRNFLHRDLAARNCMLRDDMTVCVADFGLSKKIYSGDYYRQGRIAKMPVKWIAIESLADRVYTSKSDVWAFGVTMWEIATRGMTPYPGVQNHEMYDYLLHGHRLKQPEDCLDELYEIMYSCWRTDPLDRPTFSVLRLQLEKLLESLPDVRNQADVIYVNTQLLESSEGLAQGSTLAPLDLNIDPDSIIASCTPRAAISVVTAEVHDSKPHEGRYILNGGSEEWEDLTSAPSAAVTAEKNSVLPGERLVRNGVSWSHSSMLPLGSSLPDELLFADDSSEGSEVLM
FGFR1, sequence (P11362 whole entry, looked up): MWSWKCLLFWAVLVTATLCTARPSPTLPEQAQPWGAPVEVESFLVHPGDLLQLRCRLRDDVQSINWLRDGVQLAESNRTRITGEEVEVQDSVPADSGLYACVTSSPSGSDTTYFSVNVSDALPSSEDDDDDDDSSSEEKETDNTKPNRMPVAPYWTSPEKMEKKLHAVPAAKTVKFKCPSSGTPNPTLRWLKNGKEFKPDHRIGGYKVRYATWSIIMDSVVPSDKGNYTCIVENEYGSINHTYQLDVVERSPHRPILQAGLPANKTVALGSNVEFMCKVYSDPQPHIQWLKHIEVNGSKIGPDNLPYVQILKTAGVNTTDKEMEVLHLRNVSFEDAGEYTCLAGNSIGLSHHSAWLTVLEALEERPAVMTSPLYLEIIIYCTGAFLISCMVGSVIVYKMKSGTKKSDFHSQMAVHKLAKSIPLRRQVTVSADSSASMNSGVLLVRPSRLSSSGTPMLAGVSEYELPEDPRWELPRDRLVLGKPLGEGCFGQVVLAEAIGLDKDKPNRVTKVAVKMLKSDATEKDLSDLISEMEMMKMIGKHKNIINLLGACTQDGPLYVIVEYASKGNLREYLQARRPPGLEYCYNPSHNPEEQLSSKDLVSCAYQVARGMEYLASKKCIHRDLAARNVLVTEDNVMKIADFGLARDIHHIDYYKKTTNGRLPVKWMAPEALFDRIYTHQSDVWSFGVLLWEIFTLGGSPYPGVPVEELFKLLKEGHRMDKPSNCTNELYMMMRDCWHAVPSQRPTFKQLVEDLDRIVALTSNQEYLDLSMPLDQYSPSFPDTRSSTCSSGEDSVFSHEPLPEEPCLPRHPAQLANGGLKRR
Fes, sequence (P07332 whole entry, looked up): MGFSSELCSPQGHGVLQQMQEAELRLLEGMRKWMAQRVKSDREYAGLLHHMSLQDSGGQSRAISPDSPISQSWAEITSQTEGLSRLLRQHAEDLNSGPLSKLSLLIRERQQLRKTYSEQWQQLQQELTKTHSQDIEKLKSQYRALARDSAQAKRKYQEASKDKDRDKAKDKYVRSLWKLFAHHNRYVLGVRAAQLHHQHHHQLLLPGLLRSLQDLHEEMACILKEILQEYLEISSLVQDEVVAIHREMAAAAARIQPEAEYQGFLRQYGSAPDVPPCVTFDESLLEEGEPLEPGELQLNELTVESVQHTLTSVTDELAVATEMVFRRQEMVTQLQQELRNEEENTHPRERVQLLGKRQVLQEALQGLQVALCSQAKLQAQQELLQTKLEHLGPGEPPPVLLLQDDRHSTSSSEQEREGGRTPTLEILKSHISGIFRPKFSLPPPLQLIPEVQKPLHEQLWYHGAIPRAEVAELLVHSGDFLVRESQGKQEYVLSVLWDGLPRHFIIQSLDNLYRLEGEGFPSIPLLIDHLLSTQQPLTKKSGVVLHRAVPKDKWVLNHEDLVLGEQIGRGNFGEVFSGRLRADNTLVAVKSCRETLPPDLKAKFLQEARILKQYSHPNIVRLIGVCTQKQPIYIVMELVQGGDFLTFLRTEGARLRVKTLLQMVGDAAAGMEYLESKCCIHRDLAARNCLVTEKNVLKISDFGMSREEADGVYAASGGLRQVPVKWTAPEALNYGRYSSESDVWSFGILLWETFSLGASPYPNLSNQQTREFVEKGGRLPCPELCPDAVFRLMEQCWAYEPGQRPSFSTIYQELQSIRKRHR

SH2 binding enrichment (c-Src SH2) | SH2 binding enrichment (Grb2 SH2) | SH2 binding enrichment (SHP2-C SH2) | Sequence | phosphorylation enrichment (Fes) | phosphorylation enrichment (MERTK) | phosphorylation enrichment (AncSZ) | phosphorylation enrichment (Fyn) | phosphorylation enrichment (EPHB1) | phosphorylation enrichment (EPHB2) | phosphorylation enrichment (c-Src) | phosphorylation enrichment (Hck) | phosphorylation enrichment (FGFR3) | phosphorylation enrichment (FGFR1) | phosphorylation enrichment (Fer (mouse)) | phosphorylation enrichment (c-Abl (mouse)) | phosphorylation enrichment (Jak2)
0.457 | 0.914 | 0.58 | KAALSYVSEIG [BPIFB2_Y36] | 0.636 | 0.326 | 0.555 | 0.364 | 0.352 | 0.385 | 0.372 | 0.476 | 0.558 | 0.456 | 0.387 | 0.453 | 0.668
0.53 | 0.885 | 0.78 | FTRNYYVRAVL [CYBA_Y88] | 1.11 | 0.506 | 1.19 | 0.511 | 0.622 | 0.609 | 0.468 | 0.566 | 0.685 | 0.629 | 0.526 | 0.976 | 1.06
0.51 | 0.878 | 0.599 | LGPSDYFGEIA [PRKAR1A_Y323] | 1.14 | 0.605 | 1.76 | 0.705 | 0.696 | 0.727 | 0.68 | 0.602 | 1.12 | 1.39 | 0.579 | 0.746 | 1.08
1.11 | 1.52 | 3.05 | SPYMLYQYLKQ [RPAP3_Y567_D564Y] | 1.24 | 9.38 | 1.39 | 4.34 | 14.1 | 11.4 | 5.57 | 7.66 | 4.11 | 5.62 | 10.6 | 3.63 | 2.23
1.11 | 1.29 | 0.826 | KMMGRYEMYAR [UPB1_Y362_T359M] | 0.711 | 0.543 | 0.711 | 0.333 | 0.374 | 0.551 | 0.414 | 0.51 | 0.529 | 0.5 | 0.302 | 0.367 | 0.966
0.671 | 0.94 | 0.756 | DRLPSYLDKVR [KRT12_Y139_A137P] | 0.665 | 0.656 | 0.62 | 0.454 | 0.371 | 0.331 | 0.479 | 0.794 | 0.485 | 0.408 | 0.436 | 0.494 | 0.616
1.57 | 1.31 | 1.51 | EFKKHYGYSLY [ANXA3_Y295] | 0.611 | 0.401 | 0.531 | 0.433 | 0.367 | 0.39 | 0.598 | 0.727 | 0.38 | 0.471 | 0.353 | 0.541 | 0.555
0.572 | 0.86 | 0.609 | MHDSNCVSKGS [PDGFRA_Y849_Y849C] | 0.72 | 0.384 | 0.57 | 0.387 | 0.396 | 0.367 | 0.414 | 0.456 | 0.485 | 0.456 | 0.388 | 0.559 | 0.683
0.301 | 0.637 | 0.254 | PEADKYHLTFA [FGG_Y300_R301H_YF] | 1.8 | 0.75 | 1.88 | 0.73 | 2.12 | 0.788 | 1.03 | 0.939 | 1.5 | 0.725 | 0.802 | 2.22 | 1.98
0.806 | 0.745 | 1.01 | PPVVNYEEDAR [FER_Y402] | 1.86 | 0.856 | 1.26 | 0.896 | 0.957 | 0.892 | 0.534 | 0.64 | 0.968 | 0.569 | 0.585 | 0.824 | 1.4
0.568 | 0.777 | 0.771 | VNYQPYRKHKY [TEX37_Y28_D24N] | 0.498 | 0.351 | 0.578 | 0.352 | 0.367 | 0.444 | 0.537 | 0.451 | 0.501 | 0.419 | 0.41 | 0.688 | 0.409
0.367 | 0.662 | 0.751 | QTEAPYRFIFM [PTPN11_Y511_Q510P_YF] | 1.34 | 0.595 | 1.34 | 0.637 | 0.728 | 0.626 | 0.777 | 0.645 | 1.98 | 2.71 | 4.48 | 1.34 | 1.55
0.654 | 0.921 | 0.881 | EAVSIYQFFGQ [CBLC_Y402_H405Y_YF] | 1.36 | 9.29 | 1.74 | 7.8 | 11.2 | 5.73 | 6.58 | 7.12 | 2.67 | 3.15 | 8.72 | 6.44 | 1.34
0.508 | 0.755 | 0.754 | GKPENYRRLDI [VHL_Y175_V170G] | 0.598 | 0.337 | 0.452 | 0.295 | 0.317 | 0.285 | 0.353 | 0.327 | 0.376 | 0.335 | 0.301 | 0.457 | 0.539
0.603 | 0.799 | 0.858 | FEEDSYVKRSQ [RET_Y905_YF] | 1.11 | 0.417 | 0.904 | 0.523 | 0.52 | 0.492 | 0.47 | 0.487 | 0.552 | 0.41 | 0.41 | 0.645 | 0.881
0.738 | 1.02 | 0.827 | FCRHNYGVGES [HLA-DRB1_Y112_V115G_YF] | 0.687 | 0.372 | 0.657 | 0.498 | 0.421 | 0.527 | 0.373 | 0.339 | 0.573 | 0.387 | 0.396 | 0.606 | 0.62

SH2 binding enrichment (c-Src SH2) | SH2 binding enrichment (Grb2 SH2) | SH2 binding enrichment (SHP2-C SH2) | Sequence | phosphorylation enrichment (Fes) | phosphorylation enrichment (MERTK) | phosphorylation enrichment (AncSZ) | phosphorylation enrichment (Fyn) | phosphorylation enrichment (EPHB1) | phosphorylation enrichment (EPHB2) | phosphorylation enrichment (c-Src) | phosphorylation enrichment (Hck) | phosphorylation enrichment (FGFR3) | phosphorylation enrichment (FGFR1) | phosphorylation enrichment (Fer (mouse)) | phosphorylation enrichment (c-Abl (mouse)) | phosphorylation enrichment (Jak2)
0.796 | 0.982 | 1.11 | YIRKDYEACKA [BBS4_Y48] | 0.464 | 0.398 | 0.553 | 0.445 | 0.469 | 0.398 | 0.386 | 0.404 | 0.38 | 0.466 | 0.403 | 0.374 | 0.407
0.409 | 0.885 | 0.728 | SFSGEYGSGGG [ZG16_Y30_G32S_YF] | 0.658 | 0.327 | 0.556 | 0.43 | 0.34 | 0.454 | 0.512 | 0.496 | 0.432 | 0.423 | 0.46 | 0.564 | 0.563
1.18 | 1.52 | 1.87 | AVLVQYYMEHH [PTPN11_Y80_E76V] | 1.21 | 0.89 | 0.987 | 0.673 | 2.43 | 1.32 | 0.596 | 0.875 | 0.868 | 0.753 | 0.516 | 0.708 | 0.821
1.43 | 1.79 | 1.4 | GRTNICKNKKD [SLC26A3_Y520_Y520C] | 0.973 | 0.366 | 0.631 | 0.331 | 0.462 | 0.447 | 0.437 | 0.482 | 0.911 | 0.471 | 0.448 | 1.39 | 1.16
0.75 | 0.782 | 0.606 | FGGRDYSLDEF [MYOF_Y1705_YF] | 1.18 | 0.405 | 0.964 | 0.401 | 0.597 | 0.602 | 0.542 | 0.473 | 0.733 | 0.512 | 0.493 | 0.68 | 0.946
0.569 | 0.792 | 1.4 | LVMFIYAISGM [SCN1A_Y1684_F1687S] | 1.99 | 0.725 | 1.2 | 0.442 | 0.931 | 0.927 | 0.85 | 0.727 | 1.01 | 0.48 | 0.813 | 1.17 | 1.17
0.677 | 1.08 | 0.702 | IMAYFYMCDSA [CASD1_Y382_R386S] | 1.5 | 0.505 | 1.38 | 0.523 | 0.845 | 0.643 | 0.69 | 0.51 | 2.25 | 2.24 | 0.597 | 1.07 | 1.93
0.488 | 0.713 | 0.421 | QRVLLYVRRET [GRHL3_Y518] | 0.796 | 0.801 | 1.01 | 0.699 | 0.461 | 0.577 | 0.834 | 0.669 | 0.781 | 0.676 | 0.468 | 0.41 | 0.9
1.29 | 1.06 | 0.906 | RHPREYQDLLN [DES_Y388_L385P] | 0.545 | 0.41 | 0.668 | 0.698 | 0.537 | 0.569 | 0.464 | 0.463 | 0.572 | 0.377 | 0.327 | 0.487 | 0.785
1.23 | 1.28 | 1.18 | RTTKTYFPHFD [HBA1_Y43_P38R] | 0.86 | 0.87 | 0.967 | 0.418 | 1.1 | 0.527 | 1.24 | 0.569 | 1.17 | 0.914 | 0.458 | 0.884 | 2.09
0.45 | 0.755 | 0.484 | ISRASYFRKGG [ALK_Y1282_Y1278S_YF] | 0.724 | 0.469 | 0.664 | 0.419 | 0.4 | 0.37 | 0.506 | 0.435 | 0.388 | 0.341 | 0.456 | 0.597 | 0.59
0.599 | 0.851 | 0.654 | KPIETYFSKNY [PLP1_Y50_L46P] | 0.603 | 0.466 | 0.595 | 0.448 | 0.392 | 0.408 | 0.452 | 0.45 | 0.597 | 0.466 | 0.4 | 0.473 | 0.534
1.67 | 1.21 | 2.14 | LAGRYYALKSM [CKB_Y174] | 0.852 | 3.22 | 1.24 | 0.668 | 0.541 | 0.417 | 0.67 | 0.783 | 0.957 | 1.45 | 0.545 | 0.594 | 1.29
4.71 | 1.15 | 1.1 | KGIQLYDTPYE [SHB_Y297] | 1.04 | 5.25 | 1.5 | 0.891 | 11.3 | 15.6 | 1.24 | 1.84 | 0.695 | 0.564 | 3.26 | 1.13 | 1.13
0.433 | 0.889 | 0.555 | DVRQEYPGMIL [PLXND1_Y616] | 0.949 | 0.487 | 0.675 | 0.41 | 0.413 | 0.517 | 0.403 | 0.497 | 0.588 | 0.455 | 0.394 | 0.669 | 0.76
0.372 | 0.84 | 0.648 | APRKVYDTRDD [ZFPL1_Y215] | 0.736 | 0.372 | 0.641 | 0.408 | 0.45 | 0.44 | 0.422 | 0.493 | 0.581 | 0.427 | 0.403 | 0.485 | 0.614

Sequence | SH2 binding enrichment (c-Src SH2) | SH2 binding enrichment (Grb2 SH2) | SH2 binding enrichment (SHP2-C SH2) | phosphorylation enrichment (Fes) | phosphorylation enrichment (MERTK) | phosphorylation enrichment (AncSZ) | phosphorylation enrichment (Fyn) | phosphorylation enrichment (EPHB1) | phosphorylation enrichment (EPHB2) | phosphorylation enrichment (c-Src) | phosphorylation enrichment (Hck) | phosphorylation enrichment (FGFR3) | phosphorylation enrichment (FGFR1) | phosphorylation enrichment (Fer (mouse)) | phosphorylation enrichment (c-Abl (mouse)) | phosphorylation enrichment (Jak2)
SIKDKYLTALF [KCNH2_Y611_V612L_YF] | 0.674 | 1.07 | 0.778 | 0.784 | 0.408 | 0.724 | 0.448 | 0.435 | 0.449 | 0.394 | 0.414 | 0.572 | 0.481 | 0.484 | 0.468 | 0.665
